Measured values published in patent US12065505B2, “Antibodies and antigen binding peptides for factor XIa inhibitors and uses thereof” (Bristol-Myers Squibb Company, priority 2021, dated 2024).

Columns and labels:
[1] = system: rabbit plasma clotting time (aPTT); test: In vivo reversal of Compound A anticoagulant effect by Fab, rabbit plasma aPTT; details: Compound A 1 mg/kg IV, mean of 3 animals
Procedure: In vivo experiments were conducted in accordance with the regulations of the Animal Care and Use Committee of the Bristol-Myers Squibb Company. Rabbits (male New Zealand White, 2 to 4 kg) were instrumented with indwelling catheters in the central ear artery for blood sampling and marginal ear vein for substance administration. Compound A was administered as a constant intravenous infusion at a dose of 1.0 mg/kg over 10 minutes. Beginning 20 minutes after the Compound A infusion was complete, the antibody Fab fragment 26D5-75616-348-F10-Fab-SHORT was administered as a constant intravenous infusion at a dose of 160 mg/kg over 10 minutes. […]
The anticoagulant effects of Compound A were measured in activated partial thromboplastin time (aPTT). The aPTT was determined using ACTIN® FS (Siemens/Dade-Behring) following the directions in the package insert. […] The clotting time was the time in seconds from the moment calcium chloride was added until a clot was detected. […]

[2] = Competitive TR-FRET assay, mAbs (T0 and T24); format: binding; details: 37° C.; difference between T0 and T24 IC50s; IgG1f mAb format
Procedure: A competitive TR-FRET (time-resolved fluorescence resonance energy transfer) assay was developed to rank-order the dissociation of α-Compound A mAbs from Compound A as equilibrium is reached at 37° C. The assay buffer was HBS-N (10 mM HEPES, 150 mM NaCl, pH 7.4; GE Healthcare), 0.1% (w/v) BSA (bovine serum albumin; Sigma), 2% DMSO (dimethyl sulfoxide; Sigma). All reagents were prepared in assay buffer and dispensed in equal volumes into white 384 microplates with final volume of 20 μl per well at the following final concentrations: 4 nM COMPOUND 5, the biotinylated analog of COMPOUND 2, a 100 0.1 nM 7-pt titration of human α-Compound A antibodies, 0.1 nM europium-labeled α-mouse IgG (LANCE Eu-W1024; PerkinElmer), 5 nM streptavidin-D2 (Cisbio), and 4 nM mAb 26D5 VH_A10G_Y33A_S53P_M89V_G95A; VK_W32N_H38Q (P1-075621, the second-round optimization parent 26D5-295-B08 formatted with mouse IgG Fc). COMPOUND 5 and α-Compound A antibody titrations were added first to the microplate, and were subjected to an initial incubation at 37° C., 1000 rpm, for one hour to facilitate antibody binding to the compound. After the initial incubation period, the europium α-mouse IgG, streptavidin-D2, and 26D5-mouse IgG (P1-075621) were added sequentially, then the plate was returned to 37° C., 1000 rpm incubation. Microplates were read using a Perkin Elmer EnVision plate reader, and the measured FRET signal was defined as [665 nm]/[620 nm]*10,000. Microplates were read at 30 minutes (T0) and after 24 hour (T24) intervals. […]

[3] = SPR (Biacore) Protein A mAb capture, Compound A injected; details: 37° C., binding to Compound A, for rank ordering only
Summary of the method: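 Parent and affinity-matured IgG1f mAbs were captured at 2 ug/mL on a high-density protein A chip. Compound A was injected at 100–3 nM for 2 min, with at least 450 s dissociation, at 37 °C in PBS pH 7.4 with 0.05% Tween 20 and 2% DMSO. Apparent affinities were used for rank ordering only, because off-rates were too slow to measure.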

[4] = Kinetic Exclusion Assay (KinExA) solution affinity; format: binding; details: for KinExA Ka: complex association rate, 200 pM Fab and 400 pM Compound A
Procedure: The solution affinity of the antibody Fab fragments disclosed herein for Compound A was measured using a Kinetic Exclusion Assay (KinExA). […] The relative unbound concentration of 26D5 affinity matured antibody Fab fragment was measured by capture on a streptavidin coated bead with COMPOUND 5 followed by detection with a fluorescently labeled antibody that recognizes the human IgG Fab. Kinetic analysis to determine the complex association rate was measured with the same assay format except that a single tube of the mixture was prepared (200 pM Fab and 400 pM Compound A) and time points were removed immediately (no equilibration). Two Fabs, 26D5-75229-343-A10-Fab-SHORT and 26D5-75616-348-F10-Fab-SHORT, were identified as the top two Fabs by DSC thermal stability and KinExA analysis. Antibody Fab fragment 26D5-75616-348-F10-Fab-SHORT (SEQ ID NO: 106 and SEQ ID NO: 164; see Table 3) was selected for X-ray crystallography as described below and in vivo studies as described in Example 12.

[5] = Thermal stability by Differential Scanning Calorimetry; format: physicochemical; details: DSC; Fab 1 mg/ml
Procedure: Thermal stability analysis was performed with UNchained Labs UNcle™/Tagg analysis with Fabs at a concentration of 20 uM with or without Compound A at a concentration of 50 uM (or control compound). Capillaries were scanned from 25 to 90° C. at 0.5° C./min. In addition, select Fabs were also analyzed by Differential Scanning calorimetry analysis using the Malvern MicroCal VP-Capillary DSC. Samples were buffer matched and loaded with Fabs at a concentration of 10 uM with or without Compound A at a concentration of 15 uM (or control compound). Scan temperature range was 15-110° C. at a rate of 60° C./Hr (Filter period: 16 sec, Gain: None). Sample analysis was using software provided by the manufacturer for both the UNcle and the Malvern Capillary DSC. FIG. 15 and Table 14 below show representative DSC results.

For `C[C@@H]1CCC[C@H](n2cnc(-c3cc(Cl)ccc3-n3cc(Cl)nn3)cc2=O)c2cc(ccn2)-c2c(cnn2C(F)F)NC1=O` [Compound A, (5R,9S)-9-(4-(5-chloro-2-(4-chloro-1H-1,2,3-triazol-1-yl)phenyl)-6-oxopyrimidin-1(6H)-yl)-21-(difluoromethyl)-5-methyl-21H-3-aza-1(4,2)-pyridina-2(5,4)-pyrazolacyclononaphan-4-one, reference compound], the “rabbit plasma aPTT increase relative to baseline” value [1] was “approximately 2 fold”.

B1: 26D5-GVR-Q-FT-Fab-LONG mAb: IgG1f mAb called P1-072226, S31 in place of R31, i.e. 26D5-GV-Q (VH SEQ ID NO: 82, VL SEQ ID NO: 99) (antibody, V domains shown)
VH: EVQLVESGGGLIQPGGSLRLSCAASGFTVSSNYMSWVRQAPGKGLEWVSFIYSGGRTYYADSVKGRFTISRDNSKNTLYLQMNSLRAEDTAVYYCARGGFGGGDYWGQGTLVTVSS
VL: DIQMTQSPSSVSASVGDRVTITCRASQGISSWLAWYQQKPGKAPKLLIYAASSLQSGVPSRFSGSGSGTDFTLTISSLQPEDFATYYCQQANSFPLTFGGGTKVEIK
In the case of B1, the “T0-T24 IC50 shift (Δ)” value [2] is reported as 63 nM.

B2: P1-072963: IgG1f mAb format of first round optimization progeny 26D5-295-B08; VH SEQ ID NO: 60, VL SEQ ID NO: 88 (antibody, V domains shown)
VH: EVQLVESGGGLIQPGGSLRLSCAASGFTVSSNAMSWVRQAPGKGLEWVSFIYPGGRTYYADSVKGRFTISRDNSKNTLYLQMNSLRAEDTAVYYCARAGFGGGDYWGQGTLVTVSS
VL: DIQMTQSPSSVSASVGDRVTITCRASQGISSNLAWYQQKPGKAPKLLIYAASSLQSGVPSRFSGSGSGTDFTLTISSLQPEDFATYYCQQANSFPLTFGGGTKVEIK
For B2, the “T0-T24 IC50 shift (Δ)” value [2] was 20.5 nM.

B3: 26D5-75747-348-D07-mAb: human IgG1f/kappa mAb; VH SEQ ID NO: 57, VL SEQ ID NO: 90 (antibody, V domains shown)
VH: EVQLVESGGGLIQPGGSLRLSCAASGFTVSSNAFSWVRQAPGKGLEWVSYIYSGGRTYYADSVKGRFTISRDNSKNTLYLQMNSLRAEDTAVYYCAAAGFGGGDYWGQGTLVTVSS
VL: DIQMTQSPSSVSASVGDRVTITCRASQGISSQVAWYQQKPGKAPKLLIYYASSLQSGVPSRFSGSGSGTDFTLTISSLQPEDFATYYCQQGNEFPLTFGGGTKVEIK
For B3, the Kd ([3]; apparent affinity, listed as 26D5-75747-0348-D07-mAb, read-out: KD) was < 0.03 nM, the Kd ([3]; apparent affinity, read-out: KD) was < 0.02 nM and the “Ka” value ([3]; apparent) was 2e+06 M⁻¹ s⁻¹. For the same molecule, the “Kd” value ([3]; apparent) was <5e-05 s⁻¹ and the “T0-T24 IC50 shift (Δ)” value [2] was 4.3 nM.

B4: 26D5-75229-343-A10-Fab-SHORT: antibody Fab fragment; VH SEQ ID NO: 52, VL SEQ ID NO: 84; sequence in Table 3 (antibody, V domains shown)
VH: EVQLVESGGGLIQPGGSLRLSCAASGFTVSSNAMSWVRQAPGKGLEWVSYIYPGGRTYYADSVKGRFTISRDNSKNTLYLQMNSLRAEDTAVYYCARAGFGGPDYWGQGTLVTVSS
VL: DIQMTQSPSSVSASVGDRVTITCRASQGISSNLAWYQQKPGKAPKLLIYAASSLQSGVPSRFSGSGSGTDFTLTISSLQPEDFATYYCQQANQFPLTFGGGTKVEIK
For B4, the “KinExA Ka” value [4] was 50000 M⁻¹ s⁻¹ and the “Tm1 (° C.)” value [5] was 74.9 °C.

B5: 26D5-75202-343-A09-Fab-SHORT: antibody Fab fragment; VH SEQ ID NO: 54, VL SEQ ID NO: 86; sequence in Table 3 (antibody, V domains shown)
VH: EVQLVESGGGLIQPGGSLRLSCAASGFTVSSNAMSWVRQAPGKGLEWVSYIYPGGRTYYADSVKGRFTISRDNSKNTLYLQMNSLRAEDTAVYYCARAGFGGGDYWGQGTLVTVSS
VL: DIQMTQSPSSVSASVGDRVTITCRASQGIYSNLAWYQQKPGKAPKLLIYAASSLQSGVPSRFSGSGSGTDFTLTISSLQPEDFATYYCQQANEFPLTFGGGTKVEIK
With B5 the “KinExA Ka” value [4] was 150000 M⁻¹ s⁻¹, the Kd ([4]; solution affinity for Compound A, Fab 100, 200, 300 pM, equilibrated 24-72 hours) was 0.019 nM and the “Tm1 (° C.)” value [5] was 75.3 °C.
